Experimental data taken from the supplement of paper PMC5998384.

Assays:
[1] = tested on: HeLa Kyoto; assay: solubility in G1/S (NP-40 vs SDS abundance) (log2 ratio); higher = more soluble; conditions: cell cycle stage: G1/S
[2] = tested on: HeLa Kyoto; assay: melting temperature (median over replicates), in situ; higher = more thermally stable
[3] = tested on: HeLa Kyoto; assay: solubility change mitosis vs G1/S (difference of NP-40 vs SDS log2 ratios) (log2 ratio difference); higher = more soluble in mitosis
[4] = tested on: HeLa Kyoto; assay: thermal stability score vs G1/S (z-score of summed log2 fold changes over temperatures); higher = more thermally stable than in G1/S
[5] = cell cycle stage: early G1 (4.5 h after nocodazole release)
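Throughout, for melting temperature (median over replicates), in situ: HeLa Kyoto cells synchronized by double thymidine or nocodazole block, proteins quantified by TMT10plex mass spectrometry, three independent biological replicates.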
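Throughout, for solubility change mitosis vs G1/S (difference of NP-40 vs SDS log2 ratios): synchronized HeLa Kyoto cells (double thymidine block for G1/S, nocodazole release for mitosis), protein amounts in NP-40 versus SDS lysates quantified by mass spectrometry, three biological replicates.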
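Throughout, for solubility in G1/S (NP-40 vs SDS abundance): HeLa Kyoto cells arrested at G1/S by double thymidine block, proteins quantified by TMT10plex mass spectrometry in mild NP-40 versus SDS extracts, three biological replicates.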
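Throughout, for thermal stability score vs G1/S (z-score of summed log2 fold changes over temperatures): synchronized HeLa Kyoto cells, proteins quantified by TMT10plex mass spectrometry, three biological replicates, mitosis taken 0.5 h after nocodazole release, G1/S directly after double thymidine block.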

Chain of LARS (chain, as listed by the source): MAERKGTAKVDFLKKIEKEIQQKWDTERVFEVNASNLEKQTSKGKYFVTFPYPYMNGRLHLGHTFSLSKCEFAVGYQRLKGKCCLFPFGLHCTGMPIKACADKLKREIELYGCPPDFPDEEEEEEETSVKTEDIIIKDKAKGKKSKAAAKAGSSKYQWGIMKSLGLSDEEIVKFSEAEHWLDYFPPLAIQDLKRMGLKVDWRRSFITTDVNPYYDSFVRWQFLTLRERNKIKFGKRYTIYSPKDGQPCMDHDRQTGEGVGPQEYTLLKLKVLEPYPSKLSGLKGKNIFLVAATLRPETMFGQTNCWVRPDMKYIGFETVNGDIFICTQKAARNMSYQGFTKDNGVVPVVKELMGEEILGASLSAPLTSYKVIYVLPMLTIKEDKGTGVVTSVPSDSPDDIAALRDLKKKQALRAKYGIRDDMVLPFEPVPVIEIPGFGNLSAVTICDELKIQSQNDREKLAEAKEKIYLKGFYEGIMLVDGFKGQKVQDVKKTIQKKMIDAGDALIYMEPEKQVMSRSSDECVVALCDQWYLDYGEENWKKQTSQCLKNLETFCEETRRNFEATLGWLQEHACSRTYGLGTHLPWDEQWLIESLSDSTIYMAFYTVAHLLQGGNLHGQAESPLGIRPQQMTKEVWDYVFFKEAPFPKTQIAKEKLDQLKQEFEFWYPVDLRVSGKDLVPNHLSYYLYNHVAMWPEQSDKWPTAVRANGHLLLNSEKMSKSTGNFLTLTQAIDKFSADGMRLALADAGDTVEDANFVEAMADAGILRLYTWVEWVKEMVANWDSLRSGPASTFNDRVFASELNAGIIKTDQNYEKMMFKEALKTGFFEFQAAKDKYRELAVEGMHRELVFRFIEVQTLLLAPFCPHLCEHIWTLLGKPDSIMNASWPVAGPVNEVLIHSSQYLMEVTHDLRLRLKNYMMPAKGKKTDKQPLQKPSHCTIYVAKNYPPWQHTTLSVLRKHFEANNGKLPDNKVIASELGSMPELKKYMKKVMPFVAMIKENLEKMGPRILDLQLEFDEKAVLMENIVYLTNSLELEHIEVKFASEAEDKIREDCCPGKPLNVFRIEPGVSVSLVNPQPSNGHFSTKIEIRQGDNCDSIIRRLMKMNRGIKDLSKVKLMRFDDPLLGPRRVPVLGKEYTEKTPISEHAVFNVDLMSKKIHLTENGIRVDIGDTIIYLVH
Chain of LSM3 (chain, as listed by the source): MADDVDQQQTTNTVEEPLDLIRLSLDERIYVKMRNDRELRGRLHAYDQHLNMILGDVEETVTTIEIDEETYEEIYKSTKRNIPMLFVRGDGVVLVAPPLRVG

Substance | solubility in G1/S (log2) [1] | melting temperature ([2]; cell cycle stage: G1/S) [°C] | melting temperature ([2]; cell cycle stage: mitosis) [°C] | solubility change mitosis (log2) [3] | thermal stability score [4, 5] | thermal stability score ([4]; cell cycle stage: mitosis)
LAMA5 | -0.331 | 53.3 | 54.1 | 0.0689 | 1.64 | 3.23
LARS | -0.189 | 49 | 49.1 | -0.14 | -0.182 | 2.83
LRBA | -0.115 | 51.2 | 51.2 | -0.148 | -0.555 | -0.768
LSM3 | 0.0123 | 55.4 | 53.4 | 0.115 | -1.12 | -1.32
LSM14A | 0.131 | 51.8 | 51.6 | -0.186 | -0.955 | -1.78
MAAAAAEQQQFYLLLGNLLSPDNVVRKQAEETYENIPGQSKITFLLQAIRNTTAAEEARQMAAVLLRRLLSSAFDEVYPALPSDVQTAIKSELLMIIQMETQSSMRKKVCDIAAELARNLIDEDGNNQWPEGLKFLFDSVSSQNVGLREAALHIFWNFPGIFGNQQQHYLDVIKRMLVQCMQDQEHPSIRTLSARATAAFILANEHNVALFKHFADLLPGFLQAVNDSCYQNDDSVLKSLVEIADTVPKYLRPHLEATLQLSLKLCGDTSLNNMQRQLALEVIVTLSETAAAMLRKHTNIVAQTIPQMLAMMVDLEEDEDWANADELEDDDFDSNAVAGESALDRMACGLGGKLVLPMIKEHIMQMLQNPDWKYRHAGLMALSAIGEGCHQQMEGILNEIVNFVLLFLQDPHPRVRYAACNAVGQMATDFAPGFQKKFHEKVIAALLQTMEDQGNQRVQAHAAAALINFTEDCPKSLLIPYLDNLVKHLHSIMVLKLQELIQKGTKLVLEQVVTSIASVADTAEEKFVPYYDLFMPSLKHIVENAVQKELRLLRGKTIECISLIGLAVGKEKFMQDASDVMQLLLKTQTDFNDMEDDDPQISYMISAWARMCKILGKEFQQYLPVVMGPLMKTASIKPEVALLDTQDMENMSDDDGWEFVNLGDQQSFGIKTAGLEEKSTACQMLVCYAKELKEGFVEYTEQVVKLMVPLLKFYFHDGVRVAAAESMPLLLECARVRGPEYLTQMWHFMCDALIKAIGTEPDSDVLSEIMHSFAKCIEVMGDGCLNNEHFEELGGILKAKLEEHFKNQELRQVKRQDEDYDEQVEESLQDEDDNDVYILTKVSDILHSIFSSYKEKVLPWFEQLLPLIVNLICPHRPWPDRQWGLCIFDDVIEHCSPASFKYAEYFLRPMLQYVCDNSPEVRQAAAYGLGVMAQYGGDNYRPFCTEALPLLVRVIQSADSKTKENVNATENCISAVGKIMKFKPDCVNVEEVLPHWLSWLPLHEDKEEAVQTFNYLCDLIESNHPIVLGPNNTNLPKIFSIIAEGEMHEAIKHEDPCAKRLANVVRQVQTSGGLWTECIAQLSPEQQAAIQELLNSA [IPO5] | 0.177 | 54 | 53.5 | -0.0935 | 1.46 | 1.41
MAAAAASLRGVVLGPRGAGLPGARARGLLCSARPGQLPLRTPQAVALSSKSGLSRGRKVMLSALGMLAAGGAGLAMALHSAVSASDLELHPPSYPWSHRGLLSSLDHTSIRRGFQVYKQVCASCHSMDFVAYRHLVGVCYTEDEAKELAAEVEVQDGPNEDGEMFMRPGKLFDYFPKPYPNSEAARAANNGALPPDLSYIVRARHGGEDYVFSLLTGYCEPPTGVSLREGLYFNPYFPGQAIAMAPPIYTDVLEFDDGTPATMSQIAKDVCTFLRWASEPEHDHRKRMGLKMLMMMALLVPLVYTIKRHKWSVLKSRKLAYRPPK [CYC1] | 0.869 | 54.5 | 53.5 | -0.106 | -5.79 | -6.58
MAAAAECDVVMAATEPELLDDQEAKREAETFKEQGNAYYAKKDYNEAYNYYTKAIDMCPKNASYYGNRAATLMMLGRFREALGDAQQSVRLDDSFVRGHLREGKCHLSLGNAMAACRSFQRALELDHKNAQAQQEFKNANAVMEYEKIAETDFEKRDFRKVVFCMDRALEFAPACHRFKILKAECLAMLGRYPEAQSVASDILRMDSTNADALYVRGLCLYYEDCIEKAVQFFVQALRMAPDHEKACIACRNAKALKAKKEDGNKAFKEGNYKLAYELYTEALGIDPNNIKTNAKLYCNRGTVNSKLRKLDDAIEDCTNAVKLDDTYIKAYLRRAQCYMDTEQYEEAVRDYEKVYQTEKTKEHKQLLKNAQLELKKSKRKDYYKILGVDKNASEDEIKKAYRKRALMHHPDRHSGASAEVQKEEEKKFKEVGEAFTILSDPKKKTRYDSGQDLDEEGMNMGDFDPNNIFKAFFGGPGGFSFEASGPGNFFFQFG [DNAJC7] | 0.556 | 48.8 | 49.3 | -0.0134 | 0.609 | 1.11
MAAAAGAAAAAAAEGEAPAEMGALLLEKETRGATERVHGSLGDTPRSEETLPKATPDSLEPAGPSSPASVTVTVGDEGADTPVGATPLIGDESENLEGDGDLRGGRILLGHATKSFPSSPSKGGSCPSRAKMSMTGAGKSPPSVQSLAMRLLSMPGAQGAAAAGSEPPPATTSPEGQPKVHRARKTMSKPGNGQPPVPEKRPPEIQHFRMSDDVHSLGKVTSDLAKRRKLNSGGGLSEELGSARRSGEVTLTKGDPGSLEEWETVVGDDFSLYYDSYSVDERVDSDSKSEVEALTEQLSEEEEEEEEEEEEEEEEEEEEEEEEDEESGNQSDRSGSSGRRKAKKKWRKDSPWVKPSRKRRKREPPRAKEPRGVNGVGSSGPSEYMEVPLGSLELPSEGTLSPNHAGVSNDTSSLETERGFEELPLCSCRMEAPKIDRISERAGHKCMATESVDGELSGCNAAILKRETMRPSSRVALMVLCETHRARMVKHHCCPGCGYFCTAGTFLECHPDFRVAHRFHKACVSQLNGMVFCPHCGEDASEAQEVTIPRGDGVTPPAGTAAPAPPPLSQDVPGRADTSQPSARMRGHGEPRRPPCDPLADTIDSSGPSLTLPNGGCLSAVGLPLGPGREALEKALVIQESERRKKLRFHPRQLYLSVKQGELQKVILMLLDNLDPNFQSDQQSKRTPLHAAAQKGSVEICHVLLQAGANINAVDKQQRTPLMEAVVNNHLEVARYMVQRGGCVYSKEEDGSTCLHHAAKIGNLEMVSLLLSTGQVDVNAQDSGGWTPIIWAAEHKHIEVIRMLLTRGADVTLTDNEENICLHWASFTGSAAIAEVLLNARCDLHAVNYHGDTPLHIAARESYHDCVLLFLSRGANPELRNKEGDTAWDLTPERSDVWFALQLNRKLRLGVGNRAIRTEKIICRDVARGYENVPIPCVNGVDGEPCPEDYKYISENCETSTMNIDRNITHLQHCTCVDDCSSSNCLCGQLSIRCWYDKDGRLLQEFNKIEPPLIFECNQACSCWRNCKNRVVQSGIKVRLQLYRTAKMGWGVRALQTIPQGTFICEYVGELISDAEADVREDDSYLFDLDNKDGEVYCIDARYYGNISRFINHLCDPNIIPVRVFMLHQDLRFPRIAFFSSRDIRTGEELGFDYGDRFWDIKSKYFTCQCGSEKCKHSAEAIALEQSRLARLDPHPELLPELGSLPPVNT [EHMT2] | -0.563 | 50.1 | 49.9 | 0.189 | 1.11 | 1.87
MAAAAGDADDEPRSGHSSSEGECAVAPEPLTDAEGLFSFADFGSALGGGGAGLSGRASGGAQSPLRYLHVLWQQDAEPRDELRCKIPAGRLRRAARPHRRLGPTGKEVHALKRLRDSANANDVETVQQLLEDGADPCAADDKGRTALHFASCNGNDQIVQLLLDHGADPNQRDGLGNTPLHLAACTNHVPVITTLLRGGARVDALDRAGRTPLHLAKSKLNILQEGHAQCLEAVRLEVKQIIHMLREYLERLGQHEQRERLDDLCTRLQMTSTKEQVDEVTDLLASFTSLSLQMQSMEKR [ANKRD54] | 0.0925 | 51 |  | -0.169 | 0.324 | 3.1
MAAAAGSCARVAAWGGKLRRGLAVSRQAVRSPGPLAAAVAGAALAGAGAAWHHSRVSVAARDGSFTVSAQKNVEHGIIYIGKPSLRKQRFMQFSSLEHEGEYYMTPRDFLFSVMFEQMERKTSVKKLTKKDIEDTLSGIQTAGCGSTFFRDLGDKGLISYTEYLFLLTILTKPHSGFHVAFKMLDTDGNEMIEKREFFKLQKIISKQDDLMTVKTNETGYQEAIVKEPEINTTLQMRFFGKRGQRKLHYKEFRRFMENLQTEIQEMEFLQFSKGLSFMRKEDFAEWLLFFTNTENKDIYWKNVREKLSAGESISLDEFKSFCHFTTHLEDFAIAMQMFSLAHRPVRLAEFKRAVKVATGQELSNNILDTVFKIFDLDGDECLSHEEFLGVLKNRMHRGLWVPQHQSIQEYWKCVKKESIKGVKEVWKQAGKGLF [MICU2] | -0.297 | 52.1 | 52.1 | -0.111 | 0.279 | 0.383
MAAAALGQIWARKLLSVPWLLCGPRRYASSSFKAADLQLEMTQKPHKKPGPGEPLVFGKTFTDHMLMVEWNDKGWGQPRIQPFQNLTLHPASSSLHYSLQLFEGMKAFKGKDQQVRLFRPWLNMDRMLRSAMRLCLPSFDKLELLECIRRLIEVDKDWVPDAAGTSLYVRPVLIGNEPSLGVSQPTRALLFVILCPVGAYFPGGSVTPVSLLADPAFIRAWVGGVGNYKLGGNYGPTVLVQQEALKRGCEQVLWLYGPDHQLTEVGTMNIFVYWTHEDGVLELVTPPLNGVILPGVVRQSLLDMAQTWGEFRVVERTITMKQLLRALEEGRVREVFGSGTACQVCPVHRILYKDRNLHIPTMENGPELILRFQKELKEIQYGIRAHEWMFPV [BCAT2] | -0.077 | 55.4 | 55.1 | -0.156 | -0.771 | -0.0554
MAAAALRRFWSRRRAEAGDAVVAKPGVWARLGSWARALLRDYAEACRDASAEARARPGRAAVYVGLLGGAAACFTLAPSEGAFEEALLEASGTLLLLAPATRNRESEAFVQRLLWLRGRGRLRYVNLGLCSLVYEAPFDAQASLYQARCRYLQPRWTDFPGRVLDVGFVGRWWVLGAWMRDCDINDDEFLHLPAHLRVVGPQQLHSETNERLFDEKYKPVVLTDDQVDQALWEEQVLQKEKKDRLALSQAHSLVQAEAPR [C19ORF52] | -0.131 | 53.5 | 53.8 | -0.13 | 0.683 | 0.243
